These results are taken from the supplement of paper PMC10567573.

± gives the standard deviation.

A short description of the data set: protein stability index of a GFP-peptide fusion (GPS, HEK-293T) (PSI 1-6); higher = more stable. The settings on record: c terminus: a fixed tail appended.
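Also: 24-mer peptide tiles fused after GFP, lentivirally expressed, FACS-sorted into six equal bins by GFP/DsRed ratio, decoded by Illumina sequencing, PSI is the read-weighted mean bin number.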

For KLWNPRNFKAHVSPHEMLQAVVLC [USP39], the protein stability index came out at 2.63 ± 0.57 (treatment: DMSO) and 2.88 ± 0.47 (treatment: MLN4924 1 uM, 8 h).
For the sequence KKRTEQEETIASLQMEVCRLKKEE [CEP70], the protein stability index (treatment: DMSO) was found to be 5.22 ± 0.2 and the protein stability index (treatment: MLN4924 1 uM, 8 h) was determined as 5.19 ± 0.38.
Take SDFEWLKNELERDSKIVVPPLPGK [SNX12]: the protein stability index came out at 4.07 ± 0.32 (treatment: DMSO) and 4.13 ± 0.14 (treatment: MLN4924 1 uM, 8 h).
The corresponding values for LIQRWYRRYVARLEMRRRCTWSIF [PPEF2] are 2.43 ± 1.3 and 2.73 ± 0.57.
On to QGTAEEDHVDLSLSCTLVPRSGEQ [CDKN1A], for which the protein stability index runs as follows: (treatment: DMSO) 5.19 ± 0.12; (treatment: MLN4924 1 uM, 8 h) 5.2 ± 0.28.
Consider NVPLSISRLTPGGKAAQAGVAVGD [PDLIM7], for which the protein stability index runs as follows: (treatment: DMSO) 4.05 ± 0.23; (treatment: MLN4924 1 uM, 8 h) 4.18 ± 0.13.
As to DQTSLLVVDKETDNMYRLAHFSPF [PDZK1], the protein stability index runs as follows: (treatment: DMSO) 2.61 ± 0.32; (treatment: MLN4924 1 uM, 8 h) 2.75 ± 0.26.
Consider KTILGNAHDNSEELERARELKEKE [ANKRD44], for which the protein stability index is, setting by setting: (treatment: DMSO) 5.62 ± 0.16; (treatment: MLN4924 1 uM, 8 h) 5.51 ± 0.21.
Turning to QPPVPSLSEVKPPPPPPPAQTFLF [TRADD], the protein stability index runs as follows: (treatment: DMSO) 3.41 ± 0.49; (treatment: MLN4924 1 uM, 8 h) 3.44 ± 0.12.
The corresponding values for VFAPVYFPEELHRKAALEQDLAFW [HMOX1] are 2.14 ± 0.43 and 2.4 ± 0.38.
Sequence LENDTISKQLTLEQLRREKIDLEN [CCDC6] yielded a protein stability index (treatment: DMSO) of 4.96 ± 0.27 and a protein stability index (treatment: MLN4924 1 uM, 8 h) of 4.88 ± 0.23.
Turning to DSDSCQKCDQPFFWNFKQMWDSKK [WDFY2], the protein stability index reads like this: (treatment: DMSO) 3.64 ± 0.16; (treatment: MLN4924 1 uM, 8 h) 3.71 ± 0.081.
For the sequence ENANLQEYVEKETQEKKRLSRTNE [MTUS2], the protein stability index is, setting by setting: (treatment: DMSO) 5.33 ± 0.45; (treatment: MLN4924 1 uM, 8 h) 5.35 ± 0.18.
Consider GPAGPYLLSKKGALQSRAAQRHRG [PLEKHN1], for which the protein stability index worked out at 4.16 ± 0.48 (treatment: DMSO) and 3.98 ± 0.21 (treatment: MLN4924 1 uM, 8 h).
For SLQESVEDSLATVKVVLIPVGQEI [IQUB] the same measures were 2.49 ± 0.53 and 2.24 ± 0.46.
Regarding LHRILHHKHVVQFYHYFEDKENIY [PLK2], the protein stability index reads like this: (treatment: DMSO) 2.58 ± 0.51; (treatment: MLN4924 1 uM, 8 h) 2.32 ± 0.38.
DTGEEEEGGDESDLSSESSIKKKF [EHMT1]: the protein stability index was determined as 5.46 ± 0.32 (treatment: DMSO) and 5.3 ± 0.12 (treatment: MLN4924 1 uM, 8 h).
The corresponding values for KTGILILILSIIFIEGYCTPEEVI [MAGEA10] are 3.53 ± 0.9 and 2.63 ± 0.36.
Regarding TLVDEGDLYNWEVAIFGPPNTYYE [CDC34], the protein stability index reads like this: (treatment: DMSO) 2.33 ± 0.38; (treatment: MLN4924 1 uM, 8 h) 2.8 ± 0.26.
For EPRQRRLLLLDLLALYTPVGAAGS [ANKRD9] the same measures were 2.65 ± 0.57 and 2.44 ± 0.88.
For LQAFGETLLLELEQDSGVQVEGLT [ADAMTS4], the protein stability index by setting is: (treatment: DMSO) 3.65 ± 0.63; (treatment: MLN4924 1 uM, 8 h) 3.79 ± 0.27.
For DAELATRAIPELTKLLNDEDQVVV [CTNNB1] the same measures were 4.79 ± 0.22 and 4.8 ± 0.11.
Take RAALKLEPSNKTIHAELSKLVKKH [FKBP8]: the protein stability index is, setting by setting: (treatment: DMSO) 3.71 ± 0.19; (treatment: MLN4924 1 uM, 8 h) 3.85 ± 0.12.
In the case of VQERLTKQIAVAITEALRPAGVGV [GCH1], the protein stability index by setting is: (treatment: DMSO) 2.23 ± 0.2; (treatment: MLN4924 1 uM, 8 h) 2.17 ± 0.13.
AALNNHPDIMNLLIKSGAHFDATN [FEM1C]: the protein stability index runs as follows: (treatment: DMSO) 2.41 ± 0.24; (treatment: MLN4924 1 uM, 8 h) 2.54 ± 0.3.
With ARLLCRLQAFGETLLLELEQDSGV [ADAMTS4], the protein stability index was 2.66 ± 1.3 (treatment: DMSO) and 2.73 ± 0.29 (treatment: MLN4924 1 uM, 8 h).
Consider CSIALLRALATSNARAQQRAAAQQ [GNAS], for which the protein stability index was determined as 2.23 ± 0.23 (treatment: DMSO) and 2.27 ± 0.12 (treatment: MLN4924 1 uM, 8 h).
Regarding LPISTVREVALLRRLEAFEHPNVV [CDK4], the protein stability index runs as follows: (treatment: DMSO) 2.62 ± 0.21; (treatment: MLN4924 1 uM, 8 h) 2.71 ± 0.45.
Take PYFRAMFTGELAESRQTEVVIRDI [KLHL20]: the protein stability index (treatment: DMSO) was found to be 2.77 ± 0.25 and the protein stability index (treatment: MLN4924 1 uM, 8 h) turned out to be 3.09 ± 0.19.
Consider MESRKDITNQEELWKMKPRRNLEE [STEAP1], for which the protein stability index runs as follows: (treatment: DMSO) 4.91 ± 0.37; (treatment: MLN4924 1 uM, 8 h) 4.92 ± 0.34.
Regarding TWTKHAEGGIFTSPNYPSKYPPDR [NETO1], the protein stability index stood at 3.94 ± 0.19 (treatment: DMSO) and 3.85 ± 0.065 (treatment: MLN4924 1 uM, 8 h).
For NSGHTIFNDPFFIVETVCIVWFSF [KCNA4] the same measures were 3.49 ± 0.58 and 3.51 ± 0.31.
The corresponding values for LERYVASLMPLQKSISPWKSPPQL [DENND6A] are 2.16 ± 0.28 and 2.21 ± 0.25.
Turning to EEVKTPEEEMRSHYVAQTGILWLL [GAGE1], the protein stability index came to 2.11 ± 0.31 (treatment: DMSO) and 2.44 ± 0.49 (treatment: MLN4924 1 uM, 8 h).
KDPAYFYGYVYFRQVRDKTLKRGY [DENND6A] showed a protein stability index (treatment: DMSO) of 2.44 ± 0.31 and a protein stability index (treatment: MLN4924 1 uM, 8 h) of 1.96 ± 0.29.
For RYLTFFHNYNILIATLRVALPSVM [MCOLN1], the protein stability index was 3.31 ± 0.65 (treatment: DMSO) and 3.05 ± 0.54 (treatment: MLN4924 1 uM, 8 h).
Turning to HEPPFHLDREIRLQRLSHSGSRVR [SCNN1D], the protein stability index is, setting by setting: (treatment: DMSO) 4.27 ± 0.13; (treatment: MLN4924 1 uM, 8 h) 4.31 ± 0.21.
The corresponding values for AAEGEGSPPAVAAVAGPPAAAEVG [ANKRD17] are 5.63 ± 0.23 and 5.21 ± 0.43.
For AWLTEEEPEPAEVTSTSQSPHSPD [DDIT3] the same measures were 5.59 ± 0.23 and 5.63 ± 0.21.
Turning to ATTNACEKPIGSCVTNPCGPRSRC [KRT33B], the protein stability index by setting is: (treatment: DMSO) 3.92 ± 0.17; (treatment: MLN4924 1 uM, 8 h) 4.14 ± 0.23.
As for KQILDGVHYLHSKRIAHFDLKPEN [DAPK3], the protein stability index reads like this: (treatment: DMSO) 2.91 ± 0.18; (treatment: MLN4924 1 uM, 8 h) 3.19 ± 0.26.
For the sequence ITMYAVGVGKAIEEELQEIASEPT [MATN2], the protein stability index by setting is: (treatment: DMSO) 3.18 ± 0.13; (treatment: MLN4924 1 uM, 8 h) 3.16 ± 0.19.
The corresponding values for VDDFRLKYENELALRQSVEADING [KRT13] are 4.67 ± 0.15 and 4.62 ± 0.2.
On to KTLQPTKQPNCSSLFKLKPLSNKT [PLD5], for which the protein stability index reads like this: (treatment: DMSO) 3.08 ± 0.17; (treatment: MLN4924 1 uM, 8 h) 3.09 ± 0.35.
With KSQTACLPFVLAAAVSRKKKRRMG [EHMT1], the protein stability index amounted to 3.38 ± 0.31 (treatment: DMSO) and 3.61 ± 0.3 (treatment: MLN4924 1 uM, 8 h).
For FVKYLIRPQPWLEKEIEEATKKLG [FUT8], the protein stability index by setting is: (treatment: DMSO) 2.31 ± 0.29; (treatment: MLN4924 1 uM, 8 h) 2.47 ± 0.17.
For the sequence QLFEDPTVDKEVEIRKKVLKIYNK [MNAT1], the protein stability index by setting is: (treatment: DMSO) 3.41 ± 0.18; (treatment: MLN4924 1 uM, 8 h) 3.5 ± 0.29.
On to MRKSGAMKKGGIFSAEFLKVFIPS [BNIP3L], for which the protein stability index runs as follows: (treatment: DMSO) 2.38 ± 0.3; (treatment: MLN4924 1 uM, 8 h) 2.26 ± 0.21.
Turning to YLTIILILISFTCRFLLNSRVTDA [TMEM120A], the protein stability index runs as follows: (treatment: DMSO) 3.19 ± 0.26; (treatment: MLN4924 1 uM, 8 h) 3.12 ± 0.24.
The corresponding values for VLHIVASLIILHLSGATKKGTEKQ [NETO1] are 2.78 ± 0.57 and 2.9 ± 0.65.
For the sequence GHEEMVALLLGQGANINAQTEETQ [ANKRD17], the protein stability index was determined as 4.81 ± 0.28 (treatment: DMSO) and 4.96 ± 0.19 (treatment: MLN4924 1 uM, 8 h).
With AVMFFIVFFAYAQLGYLLFGTQVE [PKD2L1], the protein stability index by setting is: (treatment: DMSO) 2.7 ± 0.48; (treatment: MLN4924 1 uM, 8 h) 2.73 ± 0.44.
